Laboratory results: patent publication US20210246218A1

Target: human FcγRIIB-Ile232 on CHO-K1 cells (human) (UniProt P31994)
Assay: flow cytometry on CHO-huFcγRIIB cells, anti-human Fc F(ab')2

Chain of human FcγRIIB-Ile232 on CHO-K1 cells (human) (P31994 43-310): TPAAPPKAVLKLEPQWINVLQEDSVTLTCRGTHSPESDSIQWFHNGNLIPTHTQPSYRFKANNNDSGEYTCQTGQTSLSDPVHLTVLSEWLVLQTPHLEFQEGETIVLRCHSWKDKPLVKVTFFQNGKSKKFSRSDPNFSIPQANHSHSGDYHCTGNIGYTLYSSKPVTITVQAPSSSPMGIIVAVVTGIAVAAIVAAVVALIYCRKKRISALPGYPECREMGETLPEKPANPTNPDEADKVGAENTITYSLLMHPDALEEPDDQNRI

EC50 (read off the curve): 5 µg/mL
Substance: Avastin (antibody)
